Measurements published in patent US8444970B2, “Compositions and methods for treating ocular diseases and conditions” (Lpath, Inc., priority 2006, dated 2013).

Key:
[1] = system: HUVECs; assay: HUVEC migration, Matrigel chemoinvasion assay; assay type: cell-based, human; details: 1 uM S1P, 1 ug/ml antibody, 6 hr
Method: (§1) FIG. 5. FIG. 5 has two panels, A and B. In panel A, S1P is shown to promote neovascularization through induction of HUVECs tube formation and migration, which is reduced by SPHINGOMAB. […] The number of cells that migrated to the Matrigel membrane were counted in five independent fields.
(§2) Experiments were performed as described by Visentin et al. (Cancer Cell 2006 March; 9(3):225-38).

[2] = system: WI-38 lung fibroblasts; assay: S1P-induced differentiation into myofibroblasts (alpha-SMA immunoblot); assay type: cell-based; details: 1 ug/mL antibody, 12-24 hr
Method: (§3) FIG. 7. […] See Example 7, below, for experimental details. […] In these experiments, fibroblasts were serum-starved and then treated with 0, 0.1, 0.5, or 1 μM S1P+/−1 μg/mL SPHINGOMAB for 12-24 hr. […] SPHINGOMAB neutralized each of these S1P effects. SPHINGOMAB reduced perivascular fibrosis in vivo in a murine model of a permanent myocardial infarction (E).
(§4) S1P makes profound contributions to wound healing by activating fibroblast migration, proliferation and collagen production; SPHINGOMAB neutralizes these effects. Several studies using multiple types of fibroblasts confirm S1P's ability to promote wound healing: 1) S1P increased Swiss-3T3 fibroblast proliferation as measured by ^3H-thymidine incorporation using standard methods (FIG. 7A); 2) S1P promoted the migration of cardiac fibroblasts in a standard scratch wound healing assay. […] In each of these assays, SPHINGOMAB neutralized S1P's. It is anticipated that ocular fibroblasts would respond similarly to S1P and SPHINGOMAB.

[3] = system: cardiac fibroblasts from transgenic mice expressing collagen-GFP; assay: S1P-stimulated collagen gene expression (collagen-GFP reporter); assay type: cell-based, mouse; details: 1 ug/mL antibody, 12-24 hr
Method: as §3, §4

[4] = system: HUVECs; assay: HUVEC tube formation on Matrigel; assay type: cell-based, human; details: co-incubated with S1P, GF-reduced Matrigel, 6 hr
Method: as §1, §2

[5] = Stability after thermochallenge (TM); assay type: physicochemical; details: thermochallenge of supernatants
Method: iii. Stability. The humanized variants were tested for stability after challenge at high temperature. The approximate midpoints of the thermal unfolding transitions (TM) were determined for every humanized variant by subjecting the supernatants to temperatures ranging from 60 to 74° C. These temperatures were chosen based on the denaturation profile observed for the murine antibody molecule after thermochallenging between a broad range of temperatures between 50 and 80° C. The binding properties of each variant were determined before and after thermochallenge.

[6] = system: endothelial cell (EC) infiltration into Matrigel plugs; assay: In vivo Matrigel plug assay, S1P-supplemented plugs, EC infiltration; set-up: species or system mouse; details: systemic administration every 48 hrs from 1 day prior to implantation
Method: Based on in vivo studies showing that S1P increased endothelial capillary growth into subcutaneously implanted Matrigel plugs, we speculated that SPHINGOMAB could reduce de novo BV formation in vivo. To investigate this, we employed the in vivo Matrigel Plug assay for neovascularization. In one set of experiments, Matrigel was supplemented with either […], 0.5 μg/mL bFGF or 1 μg/mL VEGF and then injected […]. into mice (n=4). After 10 days, the mice were heparinized and injected with the fluorescent lectin, Isolectin B4-FITC, which binds to adhesion molecules expressed by vascular EC that form the growing BVs. The plugs were then excised, frozen in OCT, sectioned and viewed for FITC-stained BVs.
Sections of the plugs were then stained with hemotoxyln & eosin for evaluation of EC infiltration (FIG. 6B). The infiltration of ECs is a critical step in neo-vascularization. […] Cell infiltration is presumed to be ECs although we recognize that other cell types such as immune cells may also be stained.

[7] = system: perivascular fibrosis; assay: Permanent myocardial infarction model, cardiac scar formation (Masson's trichrome); assay type: in vivo, mouse; details: 25 mg/kg systemic, initiated 48 hrs after surgery
Method: Studies evaluated the efficacy of SPHINGOMAB to reduce cardiac scar formation after permanent myocardial infarction (MI) via ligation of the left descending coronary artery in mice. Systemic administration of 25 mg/kg SPHINGOMAB or saline was initiated 48 hrs after surgery. Antibody administration at 48 hr. was chosen to allow normal, reparative scar formation to occur during the early remodeling phase and permit beneficial, S1P-stimulated angiogenesis immediately after the MI. Two weeks after the infarct, mice were sacrificed and fibrosis was accessed by Masson's trichrome staining of the cardiac tissue. […] As a control for any non-specific wound-healing responses, sham animals underwent thoracotomy without coronary artery ligation (FIG. 7E).

[8] = system: Swiss 3T3 fibroblasts; assay: S1P-stimulated fibroblast proliferation (3H-thymidine incorporation); assay type: cell-based; details: 1 ug/mL antibody, 12-24 hr
Method: as §3, §4

[9] = system: macrophage and mast cell infiltration; assay: Murine infarct model, immune cell infiltration into the wound; assay type: in vivo, mouse; details: 25 mg/kg 48 hr after surgery, four days post-MI
Method: FIG. 9. […] SPHINGOMAB reduced immune-cell wound infiltration in vivo. Mice were subjected to MI, treated with saline or 25 mg/kg SPHINGOMAB 48 hr. after surgery and then sacrificed on day 4. SPHINGOMAB reduced macrophage (A) and mast cell (B) infiltration into the wound. Data are represented as fold decrease of saline-treated values.
Based upon the similarities of immune and inflammatory responses in CNV and CVD, the efficacy of SPHINGOMAB to mitigate immune cell infiltration into a wound was evaluated in a murine infarct model as an indication of SPHINGOMAB's potential effects in mitigating these damages during AMD [Vine, et al. (2005), Opthalmology., vol 112: 2076-80; and Seddon and Chen (2004), Int Opthalmol Clin., vol 44: 17-39]. Four days post-MI, macrophage and mast cell infiltration was evaluated using MAC-1 and MCG35 antibodies, respectively, within the area at risk.

[10] = system: neovascularization of VEGF- or bFGF-containing Matrigel plugs; assay: In vivo Matrigel plug assay, bFGF- or VEGF-supplemented plugs, neovascularization; set-up: species or system mouse; details: 25 mg/kg i.p. every 48 hrs, 10 days
Method: Endogenous S1P from the blood and surrounding tissue could supply a wound with pro-angiogenic stimuli. The ability of SPHINGOMAB to reduce endogenous S1P in a wound was investigated. Optimally stimulated plugs (Matrigel supplemented with 0.5 μg/mL bFGF or […] VEGF) were implanted into mice. Mice received i.p. injections of 25 mg/kg SPHINGOMAB or saline every 48 hrs starting 1 day prior to Matrigel implantation. Each treatment group (Matrigel, Matrigel plus GF or Matrigel plus GF and administered SPHINGOMAB) consisted of a minimum of 6 mice. After 10 days, the mice were treated with heparin, injected with Isolectin B4-FITC, the plugs excised, embedded in OCT freezing medium and sectioned.

B1: LT1002: murine anti-S1P monoclonal antibody, IgG1 kappa, hybridoma clone 306D326.26 (antibody, listed as Mus sp., V domains shown)
VH: QAHLQQSDAELVKPGASVKISCKVSGFIFIDHTIHWMKQRPEQGLEWIGCISPRHDITKYNEMFRGKATLTADKSSTTAYIQVNSLTFEDSAVYFCARGGFYGSTIWFDFWGQGTTLTVS
VL: ETTVTQSPASLSMAIGEKVTIRCITTTDIDDDMNWFQQKPGEPPNLLISEGNILRPGVPSRFSSSGYGTDFLFTIENMLSEDVADYYCLQSDNLPFTFGSGTKLEIK
- S1P-induced HUVEC tube formation and migration [1]: reduced
- S1P-induced differentiation of WI-38 fibroblasts into myofibroblasts [2]: neutralized
- S1P-promoted collagen expression [3]: neutralized
- formation of capillary-like structures [4]: failed to form capillary-like structures
- TM (approximate midpoint of thermal unfolding transition) [5]: 65 °C
- EC infiltration into S1P-containing Matrigel plugs [6]: reduced amount of EC infiltration
- perivascular fibrosis two weeks after infarct [7]: almost complete abrogation
- S1P-stimulated Swiss 3T3 fibroblast proliferation [8]: neutralized
- density of inflammatory macrophages [9]: dramatically attenuated
- density of mast cells [9]: dramatically attenuated
- decrease in neovascularization of VEGF-containing plugs vs saline-treated animals [10]: 5 fold
- decrease in neovascularization of bFGF-containing plugs vs saline-treated animals [10]: 8.5 fold
